Measured values taken from patent publication US20180215833A1 (published 2018).

T1: human/llama-IPT chimeric c-Met ECD (human; Llama glama, UniProt P08581 25-932)
T1 construct: ranges stand under form; also called human/llama IPT1-4; construct with the human SEMA-PSI
T1 chain: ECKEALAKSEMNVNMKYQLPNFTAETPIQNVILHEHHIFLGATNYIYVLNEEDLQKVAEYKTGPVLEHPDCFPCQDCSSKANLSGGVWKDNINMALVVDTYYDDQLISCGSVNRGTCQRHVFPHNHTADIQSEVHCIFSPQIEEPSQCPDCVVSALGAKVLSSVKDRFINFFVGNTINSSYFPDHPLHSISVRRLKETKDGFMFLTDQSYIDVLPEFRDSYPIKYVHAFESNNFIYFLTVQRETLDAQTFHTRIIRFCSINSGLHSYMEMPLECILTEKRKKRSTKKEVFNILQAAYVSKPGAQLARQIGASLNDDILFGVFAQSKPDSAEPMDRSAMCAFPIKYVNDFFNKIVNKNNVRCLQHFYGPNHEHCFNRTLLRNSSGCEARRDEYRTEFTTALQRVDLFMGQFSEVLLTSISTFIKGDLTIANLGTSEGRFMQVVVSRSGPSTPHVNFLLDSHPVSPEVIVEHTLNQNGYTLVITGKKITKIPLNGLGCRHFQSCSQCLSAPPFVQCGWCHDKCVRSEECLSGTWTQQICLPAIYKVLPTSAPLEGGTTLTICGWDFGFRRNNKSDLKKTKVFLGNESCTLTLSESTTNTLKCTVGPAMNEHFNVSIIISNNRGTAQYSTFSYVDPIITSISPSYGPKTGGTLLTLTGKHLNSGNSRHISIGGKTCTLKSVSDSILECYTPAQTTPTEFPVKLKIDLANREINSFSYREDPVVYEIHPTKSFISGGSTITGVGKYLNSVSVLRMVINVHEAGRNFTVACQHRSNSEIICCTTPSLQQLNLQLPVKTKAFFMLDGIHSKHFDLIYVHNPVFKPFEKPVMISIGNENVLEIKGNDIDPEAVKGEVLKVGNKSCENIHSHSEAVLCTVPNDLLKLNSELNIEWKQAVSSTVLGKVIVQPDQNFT

T2: llama c-Met ECD (aa 25-932), His tag (Llama glama)
T2 construct: also called Llama glama c-Met
T2 chain: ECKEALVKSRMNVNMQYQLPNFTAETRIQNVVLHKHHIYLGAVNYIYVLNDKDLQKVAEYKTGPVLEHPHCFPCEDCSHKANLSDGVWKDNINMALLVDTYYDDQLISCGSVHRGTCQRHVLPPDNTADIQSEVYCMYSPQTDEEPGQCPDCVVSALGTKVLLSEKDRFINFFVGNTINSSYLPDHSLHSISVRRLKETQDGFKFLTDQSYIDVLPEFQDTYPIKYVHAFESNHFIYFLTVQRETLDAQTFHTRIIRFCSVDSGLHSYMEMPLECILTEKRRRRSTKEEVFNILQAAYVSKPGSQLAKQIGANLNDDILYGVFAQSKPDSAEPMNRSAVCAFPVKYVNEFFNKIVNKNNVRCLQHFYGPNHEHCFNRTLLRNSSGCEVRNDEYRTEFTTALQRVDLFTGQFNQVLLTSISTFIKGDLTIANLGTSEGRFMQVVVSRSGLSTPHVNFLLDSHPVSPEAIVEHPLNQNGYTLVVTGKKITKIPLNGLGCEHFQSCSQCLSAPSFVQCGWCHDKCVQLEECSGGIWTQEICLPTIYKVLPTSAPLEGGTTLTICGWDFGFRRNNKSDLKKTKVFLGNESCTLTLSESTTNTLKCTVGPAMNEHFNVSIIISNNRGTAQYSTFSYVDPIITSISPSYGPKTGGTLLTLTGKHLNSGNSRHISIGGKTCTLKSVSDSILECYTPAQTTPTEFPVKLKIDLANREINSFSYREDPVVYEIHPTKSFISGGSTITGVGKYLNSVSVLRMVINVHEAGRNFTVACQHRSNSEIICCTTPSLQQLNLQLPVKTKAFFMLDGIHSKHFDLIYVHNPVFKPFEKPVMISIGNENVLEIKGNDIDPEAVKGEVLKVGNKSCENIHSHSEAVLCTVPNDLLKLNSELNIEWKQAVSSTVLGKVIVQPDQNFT

B1: LS1 (aa1-98) (receptor)
chain: ECKEALVKSRMNVNMQYQLPNFTAETRIQNVVLHKHHIYLGAVNYIYVLNDKDLQKVAEYKTGPVLEHPHCFPCEDCSHKANLSDGVWKDNINMALLVDTYYDDQLISCGSVNRGTCQRHVFPHNHTADIQSEVHCIFSPQIEEPSQCPDCVVSALGAKVLSSVKDRFINFFVGNTINSSYFPDHPLHSISVRRLKETKDGFMFLTDQSYIDVLPEFRDSYPIKYVHAFESNNFIYFLTVQRETLDAQTFHTRIIRFCSINSGLHSYMEMPLECILTEKRKKRSTKKEVFNILQAAYVSKPGAQLARQIGASLNDDILFGVFAQSKPDSAEPMDRSAMCAFPIKYVNDFFNKIVNKNNVRCLQHFYGPNHEHCFNRTLLRNSSGCEARRDEYRTEFTTALQRVDLFMGQFSEVLLTSISTFIKGDLTIANLGTSEGRFMQVVVSRSGPSTPHVNFLLDSHPVSPEVIVEHTLNQNGYTLVITGKKITKIPLNGLGCRHFQSCSQCLSAPPFVQCGWCHDKCVRSEECLSGTWTQQICLPAIYKVFPNSAPLEGGTRLTICGWDFGFRRNNKFDLKKTRVLLGNESCTLTLSESTMNTLKCTVGPAMNKHFNMSIIISNGHGTTQYSTFSYVDPVITSISPKYGPMAGGTLLTLTGNYLNSGNSRHISIGGKTCTLKSVSNSILECYTPAQTISTEFAVKLKIDLANRETSIFSYREDPIVYEIHPTKSFISGGSTITGVGKNLNSVSVPRMVINVHEAGRNFTVACQHRSNSEIICCTTPSLQQLNLQLPLKTKAFFMLDGILSKYFDLIYVHNPVFKPFEKPVMISMGNENVLEIKGNDIDPEAVKGEVLKVGNKSCENIHLHSEAVLCTVPNDLLKLNSELNIEWKQAISSTVLGKVIVQPDQNFT
notes: Ranges count on mature human c-Met
B2: 36C4 (antibody, V domains shown)
VH: QVQLVESGPGLVKPSQTLSLTCAVSGGSITTNYYYWSWIRQSPGKGLEWMGVIAYDGSTDYSPSLKSRTSISRDTSKNQFSLQLSSVTPEDTAVYYCARDVRVIATGWATANALDAWGQGTLVTVSS
VL: QSVLTQPPSVSGSPGKTVTISCAGTSSDVGYGNYVSWYQQLPGTAPKLLIFAVSYRASGIPDRFSGSKSGNTAFLTISGLQSEDEADYYCASYRSSNNAAVFGGGTHLTVL
notes: also called mAb 36C4; SIMPLE antibody 36C4

Assays:
HGF = target: T3, HGF (UniProt P14210 32-728, limits assumed); experiment: SPR, HGF on CM-5 chip, 10 µg/ml c-Met chimera injected
T3 construct: also called hepatocyte growth factor
Procedure: Surface Plasmon Resonance (SPR) was also used to investigate the binding of the mAbs to the different llama-human c-Met chimeras. 3000 RU of 36C4, 48A2 and HGF were coupled on a CM-5 chip in 10 mM NaAc (pH4.5). 60 μl of a 10 μg/ml solution of the different c-Met chimeras was run over the chip at a flow rate of 30 μl/min and the association for 2 min was evaluated. The chip was regenerated with 20 mM NaOH and 1 M NaCl.

[1] = target: Ll11 (aa634-909) (human; Llama glama); experiment: ELISA, mAb immobilised, c-Met chimera titrated (EC50 of the chimera)
[2] = target: Ll10 (aa608-909) (human; Llama glama); experiment: as above
[3] = target: LP6 (aa497-909) (human; Llama glama); experiment: as above
[4] = target: LP7* (aa523-909) (human; Llama glama); experiment: as above
[5] = target: Ll8 (aa540-909) (human; Llama glama); experiment: as above
[6] = target: Ll9 (aa572-909) (human; Llama glama); experiment: as above
[7] = target: human c-Met on cells (MKN-45, A549, HPAF, BxPC3, NCI-H441) (human, UniProt P08581 25-1390); experiment: cell-based or functional assay
[8] = target: T1, human/llama-IPT chimeric c-Met ECD; experiment: ELISA, 200 ng immobilised c-Met protein, mAb titrated
[9] = target: T2, llama c-Met ECD (aa 25-932), His tag; experiment: ELISA, 200 ng immobilised c-Met protein
LS1 (aa1-98) = target: B1; experiment: ELISA, mAb immobilised, c-Met chimera titrated (EC50 of the chimera)
From the text: An ELISA was run to investigate the binding of the mAbs to the different chimeras.

T3 sequence (P14210 32-728 limits assumed): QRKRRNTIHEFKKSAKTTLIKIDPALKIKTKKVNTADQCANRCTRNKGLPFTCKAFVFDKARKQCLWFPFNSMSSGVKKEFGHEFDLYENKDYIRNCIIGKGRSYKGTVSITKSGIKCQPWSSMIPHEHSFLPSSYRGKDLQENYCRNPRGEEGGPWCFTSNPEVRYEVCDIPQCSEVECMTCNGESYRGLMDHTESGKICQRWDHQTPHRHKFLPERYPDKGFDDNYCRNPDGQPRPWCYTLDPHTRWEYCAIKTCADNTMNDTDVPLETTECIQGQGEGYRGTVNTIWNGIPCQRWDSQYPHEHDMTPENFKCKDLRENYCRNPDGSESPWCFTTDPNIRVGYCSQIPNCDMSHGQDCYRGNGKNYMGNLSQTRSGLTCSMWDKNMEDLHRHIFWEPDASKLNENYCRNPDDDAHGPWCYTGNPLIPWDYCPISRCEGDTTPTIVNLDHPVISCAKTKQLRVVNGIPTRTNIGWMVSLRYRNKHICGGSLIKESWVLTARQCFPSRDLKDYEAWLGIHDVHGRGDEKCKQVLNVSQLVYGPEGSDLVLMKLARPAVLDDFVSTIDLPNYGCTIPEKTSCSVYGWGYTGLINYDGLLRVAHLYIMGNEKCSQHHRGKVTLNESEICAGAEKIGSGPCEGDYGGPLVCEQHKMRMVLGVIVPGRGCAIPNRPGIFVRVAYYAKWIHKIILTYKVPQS

binding result (HGF)	EC50 [1]	EC50 [2]	EC50 [3]	EC50 [4]	EC50 [5]	EC50 [6]	ADCC, specific lysis of MKN-45 cells, EC50 [7]	antibody-induced proliferation of BxPC3 cells, percentage of the proliferation obtained with 75 ng/ml HGF [7]	binding result [8]	binding result [9]	EC50 (LS1 (aa1-98))	Binder
binds												B1
	0.045 µg/mL	0.047 µg/mL	0.05 µg/mL	0.055 µg/mL	0.047 µg/mL	0.047 µg/mL	0.005 µg/mL	< 20%	binds	no binding	0.068 µg/mL	B2
